Here are results for four sequences from the supplement of paper PMC5998384.

The subject of data set [1] is HeLa Kyoto. The data set can be described thus: solubility in G1/S (NP-40 vs SDS abundance) (log2 ratio); higher = more soluble. The following applies: cell cycle stage: G1/S.
In data set [2] the test system is HeLa Kyoto. The data set can be described thus: melting temperature (median over replicates), in situ; higher = more thermally stable.
Data set [3] deals with HeLa Kyoto. The data set can be described thus: solubility change mitosis vs G1/S (difference of NP-40 vs SDS log2 ratios) (log2 ratio difference); higher = more soluble in mitosis.
In data set [4] the test system is HeLa Kyoto. Put plainly: thermal stability score vs G1/S (z-score of summed log2 fold changes over temperatures); higher = more thermally stable than in G1/S.
Setting [5] is: cell cycle stage: early G1 (4.5 h after nocodazole release).
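Throughout, for melting temperature (median over replicates), in situ: HeLa Kyoto cells synchronized by double thymidine or nocodazole block, proteins quantified by TMT10plex mass spectrometry, three independent biological replicates.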
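Throughout, for solubility change mitosis vs G1/S (difference of NP-40 vs SDS log2 ratios): synchronized HeLa Kyoto cells (double thymidine block for G1/S, nocodazole release for mitosis), protein amounts in NP-40 versus SDS lysates quantified by mass spectrometry, three biological replicates.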
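Throughout, for solubility in G1/S (NP-40 vs SDS abundance): HeLa Kyoto cells arrested at G1/S by double thymidine block, proteins quantified by TMT10plex mass spectrometry in mild NP-40 versus SDS extracts, three biological replicates.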
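Throughout, for thermal stability score vs G1/S (z-score of summed log2 fold changes over temperatures): synchronized HeLa Kyoto cells, proteins quantified by TMT10plex mass spectrometry, three biological replicates, mitosis taken 0.5 h after nocodazole release, G1/S directly after double thymidine block.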

On to “MVGQMYCYPGSHLARALTRALALALVLALLVGPFLSGLAGAIPAPGGRWARDGQVPPASRSRSVLLDVSAGQLLMVDGRHPDAVAWANLTNAIRETGWAFLELGTSGQYNDSLQAYAAGVVEAAVSEELIYMHWMNTVVNYCGPFEYEVGYCERLKSFLEANLEWMQEEMESNPDSPYWHQVRLTLLQLKGLEDSYEGRVSFPAGKFTIKPLGFLLLQLSGDLEDLELALNKTKIKPSLGSGSCSALIKLLPGQSDLLVAHNTWNNYQHMLRVIKKYWLQFREGPWGDYPLVPGNKLVFSSYPGTIFSCDDFYILGSGLVTLETTIGNKNPALWKYVRPRGCVLEWVRNIVANRLASDGATWADIFKRFNSGTYNNQWMIVDYKAFIPGGPSPGSRVLTILEQIPGMVVVADKTSELYQKTYWASYNIPSFETVFNASGLQALVAQYGDWFSYDGSPRAQIFRRNQSLVQDMDSMVRLMRYNDFLHDPLSLCKACNPQPNGENAISARSDLNPANGSYPFQALRQRSHGGIDVKVTSMSLARILSLLAASGPTWDQVPPFQWSTSPFSGLLHMGQPDLWKFAPVKVSWD [PLBD2]”, for which the “solubility in G1/S (log2)” value with HeLa Kyoto [1] came out at 0.298. Further, the melting temperature stood at 56.6 °C in the data set on HeLa Kyoto [2] (cell cycle stage: G1/S) and 55.9 °C with HeLa Kyoto [2] (cell cycle stage: mitosis). The “solubility change mitosis (log2)” value with HeLa Kyoto [3] was -0.0289. Besides, the thermal stability score in the data set on HeLa Kyoto [4] (setting [5]) is -1.75; in the data set with HeLa Kyoto [4] (cell cycle stage: mitosis) it was -1.5.

As for “MVGSALRRGAHAYVYLVSKASHISRGHQHQAWGSRPPAAECATQRAPGSVVELLGKSYPQDDHSNLTRKVLTRVGRNLHNQQHHPLWLIKERVKEHFYKQYVGRFGTPLFSVYDNLSPVVTTWQNFDSLLIPADHPSRKKGDNYYLNRTHMLRAHTSAHQWDLLHAGLDAFLVVGDVYRRDQIDSQHYPIFHQLEAVRLFSKHELFAGIKDGESLQLFEQSSRSAHKQETHTMEAVKLVEFDLKQTLTRLMAHLFGDELEIRWVDCYFPFTHPSFEMEINFHGEWLEVLGCGVMEQQLVNSAGAQDRIGWAFGLGLERLAMILYDIPDIRLFWCEDERFLKQFCVSNINQKVKFQPLSKYPAVINDISFWLPSENYAENDFYDLVRTIGGDLVEKVDLIDKFVHPKTHKTSHCYRITYRHMERTLSQREVRHIHQALQEAAVQLLGVEGRF [FARS2]”, the “solubility in G1/S (log2)” value in the data set with HeLa Kyoto [1] is -0.187. In addition, the melting temperature with HeLa Kyoto [2] (cell cycle stage: G1/S) worked out at 49.7 °C; with HeLa Kyoto [2] (cell cycle stage: mitosis), 49.5 °C. Besides, in the data set with HeLa Kyoto [3], the “solubility change mitosis (log2)” value was -0.0528. The thermal stability score in the data set with HeLa Kyoto [4] (setting [5]) was 0.911; in the data set on HeLa Kyoto [4] (cell cycle stage: mitosis), 1.74.

With “MVHIKKGELTQEEKELLEVIGKGTVQEAGTLLSSKNVRVNCLDENGMTPLMHAAYKGKLDMCKLLLRHGADVNCHQHEHGYTALMFAALSGNKDITWVMLEAGAETDVVNSVGRTAAQMAAFVGQHDCVTIINNFFPRERLDYYTKPQGLDKEPKLPPKLAGPLHKIITTTNLHPVKIVMLVNENPLLTEEAALNKCYRVMDLICEKCMKQRDMNEVLAMKMHYISCIFQKCINFLKDGENKLDTLIKSLLKGRASDGFPVYQEKIIRESIRKFPYCEATLLQQLVRSIAPVEIGSDPTAFSVLTQAITGQVGFVDVEFCTTCGEKGASKRCSVCKMVIYCDQTCQKTHWFTHKKICKNLKDIYEKQQLEAAKEKRQEENHGKLDVNSNCVNEEQPEAEVGISQKDSNPEDSGEGKKESLESEAELEGLQDAPAGPQVSEE [ANKMY2]”, the “solubility in G1/S (log2)” value with HeLa Kyoto [1] worked out at 0.124. The same sequence had a melting temperature with HeLa Kyoto [2] (cell cycle stage: G1/S) of 50.1 °C. The “solubility change mitosis (log2)” value in the data set on HeLa Kyoto [3] is -0.16. The thermal stability score with HeLa Kyoto [4] (setting [5]) was -0.173; in the data set on HeLa Kyoto [4] (cell cycle stage: mitosis), -0.528.

Take “MVKEQFRETDVAKKISHICFGMKSPEEMRQQAHIQVVSKNLYSQDNQHAPLLYGVLDHRMGTSEKDRPCETCGKNLADCLGHYGYIDLELPCFHVGYFRAVIGILQMICKTCCHIMLSQEEKKQFLDYLKRPGLTYLQKRGLKKKISDKCRKKNICHHCGAFNGTVKKCGLLKIIHEKYKTNKKVVDPIVSNFLQSFETAIEHNKEVEPLLGRAQENLNPLVVLNLFKRIPAEDVPLLLMNPEAGKPSDLILTRLLVPPLCIRPSVVSDLKSGTNEDDLTMKLTEIIFLNDVIKKHRISGAKTQMIMEDWDFLQLQCALYINSELSGIPLNMAPKKWTRGFVQRLKGKQGRFRGNLSGKRVDFSGRTVISPDPNLRIDEVAVPVHVAKILTFPEKVNKANINFLRKLVQNGPEVHPGANFIQQRHTQMKRFLKYGNREKMAQELKYGDIVERHLIDGDVVLFNRQPSLHKLSIMAHLARVKPHRTFRFNECVCTPYNADFDGDEMNLHLPQTEEAKAEALVLMGTKANLVTPRNGEPLIAAIQDFLTGAYLLTLKDTFFDRAKACQIIASILVGKDEKIKVRLPPPTILKPVTLWTGKQIFSVILRPSDDNPVRANLRTKGKQYCGKGEDLCANDSYVTIQNSELMSGSMDKGTLGSGSKNNIFYILLRDWGQNEAADAMSRLARLAPVYLSNRGFSIGIGDVTPGQGLLKAKYELLNAGYKKCDEYIEALNTGKLQQQPGCTAEETLEALILKELSVIRDHAGSACLRELDKSNSPLTMALCGSKGSFINISQMIACVGQQAISGSRVPDGFENRSLPHFEKHSKLPAAKGFVANSFYSGLTPTEFFFHTMAGREGLVDTAVKTAETGYMQRRLVKSLEDLCSQYDLTVRSSTGDIIQFIYGGDGLDPAAMEGKDEPLEFKRVLDNIKAVFPCPSEPALSKNELILTTESIMKKSEFLCCQDSFLQEIKKFIKGVSEKIKKTRDKYGINDNGTTEPRVLYQLDRITPTQVEKFLETCRDKYMRAQMEPGSAVGALCAQSIGEPGTQMTLKTFHFAGVASMNITLGVPRIKEIINASKAISTPIITAQLDKDDDADYARLVKGRIEKTLLGEISEYIEEVFLPDDCFILVKLSLERIRLLRLEVNAETVRYSICTSKLRVKPGDVAVHGEAVVCVTPRENSKSSMYYVLQFLKEDLPKVVVQGIPEVSRAVIHIDEQSGKEKYKLLVEGDNLRAVMATHGVKGTRTTSNNTYEVEKTLGIEAARTTIINEIQYTMVNHGMSIDRRHVMLLSDLMTYKGEVLGITRFGLAKMKESVLMLASFEKTADHLFDAAYFGQKDSVCGVSECIIMGIPMNIGTGLFKLLHKADRDPNPPKRPLIFDTNEFHIPLVT [POLR3A]”: the “solubility in G1/S (log2)” value in the data set on HeLa Kyoto [1] was -0.268. The figures for the melting temperature in the data set with HeLa Kyoto [2] (cell cycle stage: G1/S) and in the data set on HeLa Kyoto [2] (cell cycle stage: mitosis) were 49.1 °C and 49.9 °C, respectively. Besides, the “solubility change mitosis (log2)” value in the data set with HeLa Kyoto [3] was -0.101. In addition, the thermal stability score is 0.905 in the data set with HeLa Kyoto [4] (setting [5]) and 2.38 in the data set with HeLa Kyoto [4] (cell cycle stage: mitosis).
